Tested on: MS2 coat protein
Assay: apparent KD of MS2 coat protein; designed switch direction (-1 OFF switch, 1 ON switch): 1; higher = weaker reporter binding
Method in brief: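 An oligonucleotide input, 200 uM small-molecule ligand, or no input was present during titration of SNAP-549-labelled MS2 coat protein, which was doubled from 0.7 or 1.5 nM to 3 µM. Designed RNA switches had been transcribed on Illumina chips by stalled E. coli RNA polymerase. Apparent KD per design is the median over clusters of curves fitted to normalised cluster fluorescence.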

[1] = input ligand: microRNA oligo, concentration not stated
[2] = Eterna round: R95, input ligand: FMN 200 uM
[3] = Eterna round: R95, input ligand: microRNA oligo, concentration not stated
[4] = Eterna round: R95, input ligand: none

Row | Sequence | apparent KD of MS2 coat protein (input ligand: FMN 200 uM) [nM] | apparent KD of MS2 coat protein [1] [nM] | apparent KD of MS2 coat protein (input ligand: none) [nM] | apparent KD of MS2 coat protein [2] [nM] | apparent KD of MS2 coat protein [3] [nM] | apparent KD of MS2 coat protein [4] [nM]
1 | GUUACAUGAGGAUCACCCAUGUAUGUGUGGGAGUAAGUGUCUUAGGAUAUCUAGUAUUUGAUUUAAGAGAAGGAAGAUUGUUGU [JMF's solution 60] (Eterna round: R96, puzzle: Same State NG 3) | 121 | 75.4 | 110 | – | – | –
2 | GUUACAUGAGGAUCACCCAUGUAUGUGUGGGAGUAAGUGUCUUAGGAUAUCUAGUUUUUAAUUUAAGAGAAGGAAGAUUGUUGU [JMF's solution 52] (Eterna round: R96, puzzle: Same State NG 3) | 151 | 67.2 | 114 | – | – | –
3 | GUUACAUGAGGAUCACCCAUGUAUGUGUGGGAGUAAGUGUCUUAGGAUAUCUAUCAUUAAAUUUAAGAGAAGGAAGAUUGUUGU [JMF's solution 91] (Eterna round: R96, puzzle: Same State NG 3) | 105 | 84.7 | 121 | – | – | –
4 | GUUACAUGAGGAUCACCCAUGUAUGUGUGGGAGUAAGUGUCUUAGGAUAUCUAUCAUUUAAUAUAAGAGAAGGAAGAUUGUUGU [JMF's solution 96] (Eterna round: R96, puzzle: Same State NG 3) | – | 87.3 | – | – | – | –
5 | GUUACAUGAGGAUCACCCAUGUAUGUGUGGGAGUAAGUGUCUUAGGAUAUCUAUGAUAUAAUUUAAGAGAAGGAAGAUUGUUGU [JMF's solution 75] (Eterna round: R96, puzzle: Same State NG 3) | 103 | 69.9 | 136 | – | – | –
6 | GUUACAUGAGGAUCACCCAUGUAUGUGUGGGAGUAAGUGUCUUAGGAUAUCUAUGAUUGAAUUUAAGAGAAGGAAGAUUGUUGU [JMF's solution 77] (Eterna round: R96, puzzle: Same State NG 3) | 103 | 83.8 | 90.6 | – | – | –
7 | GUUACAUGAGGAUCACCCAUGUAUGUGUGGGAGUAAGUGUCUUAGGAUAUCUAUGAUUUAACUUAAGAGAAGGAAGAUUGUUGU [JMF's solution 81] (Eterna round: R96, puzzle: Same State NG 3) | 123 | 72.9 | 98.6 | – | – | –
8 | GUUACAUGAGGAUCACCCAUGUAUGUGUGGGAGUAAGUGUCUUAGGAUAUCUAUGAUUUAAGUUAAGAGAAGGAAGAUUGUUGU [JMF's solution 80] (Eterna round: R96, puzzle: Same State NG 3) | 118 | 89.5 | 114 | – | – | –
9 | GUUACAUGAGGAUCACCCAUGUAUGUGUGGGAGUAAGUGUCUUAGGAUAUCUAUGUUUUAAUUUAAGAGAAGGAAGAUUGUUGU [JMF's solution 71] (Eterna round: R96, puzzle: Same State NG 3) | 102 | 102 | 115 | – | – | –
10 | GUUACAUGAGGAUCACCCAUGUAUGUGUGGGAGUAAGUGUCUUAGGAUAUCUAUUAUUGAAAUUAAGAGAAGGAAGAUUGUUGU [JMF's solution 19] (Eterna round: R96, puzzle: Same State NG 3) | – | 98.6 | – | – | – | –
11 | GUUACAUGAGGAUCACCCAUGUAUGUGUGGGAGUAAGUGUCUUAGGAUAUCUAUUAUUUAAUGUAAGAGAAGGAAGAUUGUUGU [JMF's solution 24] (Eterna round: R96, puzzle: Same State NG 3) | – | 106 | – | – | – | –
12 | GUUACAUGAGGAUCACCCAUGUAUGUGUGGGAGUAAGUGUCUUAGGAUAUCUGUUAUUAAAUUUAAGAGAAGGAAGAUUGUUGU [JMF's solution 36] (Eterna round: R96, puzzle: Same State NG 3) | 104 | 64.1 | 92.7 | – | – | –
13 | GUUACAUGAGGAUCACCCAUGUGUGUGUGGGAGUGAGUGGCUUAGGAUAUCUAUGAUUUAAGUUAAGAGAAGGAAGAUUGUUGU [SS-NG3-LRO03] (Eterna round: R96, puzzle: Same State NG 3) | 415 | 196 | 352 | – | – | –
14 | GUUAGGAAUCUAGCAUACAUGAGGAUCACCCAUGUUAGUGGGAAGGAUAUGGUACAGAAACUGUACCAGAAGGUCUUAUUGUUU [Omei SS(NG) 3 AV12] (Eterna round: R96, puzzle: Same State NG 3) | 210 | 348 | 408 | – | – | –
15 | GUUAGGAAUCUAGCGAACAUGAGGAUCACCCAUGUUAGUGGGAAGGAUAUGGUACAGAAACUGUACCAGAAGGUCUUAUUGUUU [Omei SS(NG) 3 AV11] (Eterna round: R96, puzzle: Same State NG 3) | – | 332 | – | – | – | –
16 | GUUGAAUUGCAAGGAUAUCUUAGUCAGACGCUAAGAGAAGGUGCUUUACAGUUACAUGAGGAUCACCCAUGUCUUUCUUUUGAU [Jens NG1-01] (Eterna round: R96, puzzle: Same State NG 1) | 23.4 | 20.2 | 28.5 | – | – | –

Row | Sequence | apparent KD of MS2 coat protein (input ligand: FMN 200 uM) [nM] | apparent KD of MS2 coat protein [1] [nM] | apparent KD of MS2 coat protein (input ligand: none) [nM] | apparent KD of MS2 coat protein [2] [nM] | apparent KD of MS2 coat protein [3] [nM] | apparent KD of MS2 coat protein [4] [nM]
17 | GUUGAGAAAUAAGGAUAUACAUGGAAGACACAUGAGGAUCACCCAUGUGGGAGGGAAACCAGGAGGUAGAAGGUAUUGGGAAAC [AK SSNG2-V2-23] (Eterna round: R96, puzzle: Same State NG 2) | 33.1 | 24.1 | 43.7 | – | – | –
18 | UAAACUUCUUUUAGUGUAAUGCAAGUGAAACAUGAGGAUCACCCAUGUAAAGGAUCGUGAUAUUUUGUUCGUCUUAA [JR_SHM208A_Sub076] (puzzle: Sensor for hsa-mir-208a) | – | – | – | 57.2 | 32.5 | 83
19 | UAAAGAUCGCGAGGAUAUCGCGAGGAUCACCCGUGAGAAGGCGCAGAGCCGAGGAUCACCCGGCUGAUCCUGAGGAGGAGGUCA (Eterna round: R96, puzzle: Same State NG 1) | 204 | 213 | 302 | – | – | –
20 | UAAAGCAAGUCAGGAUAUGGGAAAGGAAGUGUACUAGAAGGGACUUGUAGGAACAUGAGGAUCACCCAUGUACCGCGGACUAAA [PowerStrip SSNG 1.7] (Eterna round: R96, puzzle: Same State NG 1) | 31.7 | 42.6 | 47.8 | – | – | –
21 | UAAAUAAUGAUAGGAUAUACAUGAGGAAUUCUCGUAGAAGGAUCAUGACAUGAGGAUCACCCAUGUAACGCUCGAAAGAGCGUA [Mat - Same State NG 1 - JL mod - D40] (Eterna round: R96, puzzle: Same State NG 1) | 556 | 205 | 585 | – | – | –
22 | UAACAGUACAAUUUAGAUCUACAUGAGGAUCACCCAUGUACUGAGGAUAUCAGCUCGUGUAGAGCUGAGAAGGCAGAAGAACUA [SSNG3/11-A4] (Eterna round: R96, puzzle: Same State NG 3) | 38.1 | 93.4 | 173 | – | – | –
23 | UAAUUAAGUCAAGGAUAUCACGUCGAAUAGACGUGAGAAGGUGAUUAAUACAUGAGGAUCACCCAUGUAAUACAUGAAUAAUUA [SSNG1/11-B1] (Eterna round: R96, puzzle: Same State NG 1) | 38.3 | 61.6 | 70.8 | – | – | –
24 | UACAAUCUAUCUGAGGAUAUCAUGCAUUACACAUGAGGAUCACCCAUGUGCAGGAAAACUGCAUAUGAGAAGGCAGAUAGAUUGU [salish99_ss2_r3_066] (Eterna round: R96, puzzle: Same State 2) | 15.5 | 328 | 411 | – | – | –
25 | UACAAUCUAUCUGAGGAUAUCAUGCAUUACACAUGAGGAUCACCCAUGUGCAGGAAAACUGCAUAUGAGAAGGCAGAUAGAUUGU [salish99_ss2_r3_066] (puzzle: Same State 2) | – | – | – | 20.1 | 457 | 472
26 | UAGAACAAGCUUUUUGCCCGUCUUAGAUAACAUGAGGAUCACCCAUGUAAGGUGAAAGUUAGAGAGUGGAGGAAGAA [JR_SHM208A_Sub054] (puzzle: Sensor for hsa-mir-208a) | – | – | – | 86.4 | 217 | 146
27 | UAGGGACAUGAGGAUCACCCAUGUGCCUCAUAUGGAGAAACUCAGGAUAUGCUGAGGAUCACCCGGCAGAAGGGAGAUUUGACC (Eterna round: R96, puzzle: Same State NG 3) | 24.2 | 37.1 | 53.2 | – | – | –
28 | UAGUACAAGCUUUUUGCUUGUCUUAUUUAACAUGAGGAUCACCCAUGUAAGUUGAAAGUUAGAGAGUGGAGGUUGAA [JR_SHM208A_Sub050] (puzzle: Sensor for hsa-mir-208a) | – | – | – | 20 | 20.4 | 18.8
29 | UAGUGAUUGCAAGGAUAUGCUUAUGUUUAAUUUUAUUUAUUAUCUAACAUGAGGAUCACCCAUGUGCAGAAGGUGCUUGAUUUG [JR_SSNG2_Sub074] (Eterna round: R96, puzzle: Same State NG 2) | – | 48.4 | – | – | – | –
30 | UAGUGCAUUAGAGGAUAUUCUUACGGAAACGUUAAGACAUGAGGAUCACCCAUGUUGUCACAUGGGAAGAAGGCUGAUGUGCUA [Omei SS(NG)2 Bv4] (Eterna round: R96, puzzle: Same State NG 2) | 63.6 | 390 | 835 | – | – | –
31 | UAUAAACAUGAGGAUCACCCAUGUAAUAAUAUGGGAGGAUAUCAGAAUUUAUUUAUUUAAUGAGAAGGCCUAAUAU [Mat - Same State 1 - Mod of Eli - D67] (Eterna round: R96, puzzle: Same State 1) | – | 440 | – | – | – | –

Reference: the supplement of paper PMC9170038
